Source: PMC10644982, “Targeting amyotrophic lateral sclerosis by neutralizing seeding-competent TDP-43 in CSF” (Brain Communications, 2023)

Molecular target: the molecule itself
Assay: thioflavin T aggregation kinetics + electron microscopy; synthetic substrate peptide alone at a range of concentrations, seed-free or seeded with the final product of the 15 µM reaction; 40 mM Tris-HCl, 5 mM DTT, 0.002% SDS, 50 µM ThT, 40°C, intermittent shaking; fibrils seen by negative-stain transmission electron microscopy

B1: TDP-43 peptide (352–414) (peptide)
peptide: NNQNQGNMQREPNQAFGSGNNSYSGSNSGAAIGWGSASNAGSGSGFNGGFGSSMDSKSSGWGM
notes: free N- and C-termini (H- ... -OH); also called assay substrate; SAA substrate
binding result: binds
